Target: GST–α-adaptin ear (UniProt P17427)
Assay: pull-down

Chain of GST–α-adaptin ear (P17427 whole entry): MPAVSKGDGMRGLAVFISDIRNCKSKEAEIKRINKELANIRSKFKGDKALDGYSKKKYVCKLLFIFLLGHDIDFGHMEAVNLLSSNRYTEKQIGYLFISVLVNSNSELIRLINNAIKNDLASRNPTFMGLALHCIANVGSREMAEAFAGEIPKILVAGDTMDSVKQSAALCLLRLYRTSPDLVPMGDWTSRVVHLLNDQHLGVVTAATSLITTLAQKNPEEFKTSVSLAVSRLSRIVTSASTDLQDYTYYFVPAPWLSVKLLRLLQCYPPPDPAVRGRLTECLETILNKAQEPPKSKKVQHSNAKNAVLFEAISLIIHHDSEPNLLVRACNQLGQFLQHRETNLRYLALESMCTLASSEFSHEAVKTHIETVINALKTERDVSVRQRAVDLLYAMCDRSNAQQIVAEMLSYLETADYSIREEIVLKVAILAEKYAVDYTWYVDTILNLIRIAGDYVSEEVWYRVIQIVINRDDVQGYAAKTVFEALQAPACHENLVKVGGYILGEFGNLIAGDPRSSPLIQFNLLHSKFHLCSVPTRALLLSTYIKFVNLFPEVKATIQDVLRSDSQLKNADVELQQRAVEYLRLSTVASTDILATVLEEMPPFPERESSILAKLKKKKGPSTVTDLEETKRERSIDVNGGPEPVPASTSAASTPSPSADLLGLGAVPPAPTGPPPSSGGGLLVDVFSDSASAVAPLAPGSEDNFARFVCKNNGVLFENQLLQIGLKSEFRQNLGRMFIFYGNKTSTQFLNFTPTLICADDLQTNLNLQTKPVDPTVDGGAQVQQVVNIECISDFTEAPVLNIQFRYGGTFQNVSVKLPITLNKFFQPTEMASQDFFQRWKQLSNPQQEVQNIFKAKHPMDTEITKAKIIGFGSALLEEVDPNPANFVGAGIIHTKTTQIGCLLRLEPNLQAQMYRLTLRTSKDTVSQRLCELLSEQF
Chain of HA–hRME-6^wt (human RME-6, full length) (natural protein) (Q14C86 whole entry): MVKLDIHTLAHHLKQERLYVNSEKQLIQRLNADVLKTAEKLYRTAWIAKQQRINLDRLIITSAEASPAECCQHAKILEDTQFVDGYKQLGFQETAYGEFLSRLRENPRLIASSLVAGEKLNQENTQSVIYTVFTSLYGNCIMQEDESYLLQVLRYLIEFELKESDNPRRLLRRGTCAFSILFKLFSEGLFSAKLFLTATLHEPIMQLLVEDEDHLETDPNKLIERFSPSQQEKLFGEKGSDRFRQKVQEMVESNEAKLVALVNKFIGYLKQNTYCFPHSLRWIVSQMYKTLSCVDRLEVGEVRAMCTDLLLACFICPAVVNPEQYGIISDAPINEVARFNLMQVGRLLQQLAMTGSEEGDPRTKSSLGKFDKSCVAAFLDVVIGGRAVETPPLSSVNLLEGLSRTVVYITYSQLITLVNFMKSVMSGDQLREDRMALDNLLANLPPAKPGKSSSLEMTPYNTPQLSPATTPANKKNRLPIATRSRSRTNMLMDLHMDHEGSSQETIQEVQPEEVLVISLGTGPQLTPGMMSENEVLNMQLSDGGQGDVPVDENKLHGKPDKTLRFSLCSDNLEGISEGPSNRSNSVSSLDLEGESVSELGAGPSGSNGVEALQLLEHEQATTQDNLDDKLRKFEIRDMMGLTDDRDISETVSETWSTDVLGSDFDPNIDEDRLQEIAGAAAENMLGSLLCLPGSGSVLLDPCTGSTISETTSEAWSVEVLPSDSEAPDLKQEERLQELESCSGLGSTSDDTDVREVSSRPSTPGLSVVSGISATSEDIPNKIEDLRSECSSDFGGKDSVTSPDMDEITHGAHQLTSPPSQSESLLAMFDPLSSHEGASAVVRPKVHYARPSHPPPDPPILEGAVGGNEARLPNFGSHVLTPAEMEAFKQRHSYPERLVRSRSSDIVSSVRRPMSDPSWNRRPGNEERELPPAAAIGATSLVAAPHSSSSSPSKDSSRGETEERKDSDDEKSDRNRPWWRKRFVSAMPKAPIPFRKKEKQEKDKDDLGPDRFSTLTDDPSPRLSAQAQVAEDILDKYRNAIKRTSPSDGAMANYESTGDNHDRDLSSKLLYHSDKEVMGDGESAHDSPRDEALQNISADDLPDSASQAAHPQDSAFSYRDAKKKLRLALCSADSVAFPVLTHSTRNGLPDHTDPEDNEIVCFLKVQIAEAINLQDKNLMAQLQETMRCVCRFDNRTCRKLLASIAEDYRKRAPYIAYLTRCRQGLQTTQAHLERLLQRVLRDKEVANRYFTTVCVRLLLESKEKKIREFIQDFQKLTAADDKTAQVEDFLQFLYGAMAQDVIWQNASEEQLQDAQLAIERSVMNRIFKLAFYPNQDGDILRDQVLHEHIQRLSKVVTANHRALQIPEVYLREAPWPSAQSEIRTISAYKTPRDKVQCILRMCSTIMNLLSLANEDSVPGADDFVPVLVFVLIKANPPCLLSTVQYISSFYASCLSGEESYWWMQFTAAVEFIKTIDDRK

| Substance | fold reduction of binding against hRME-6^wt | fold reduction of binding against hRME-6 from mock-treated cytosol |
| --- | --- | --- |
| HA–hRME-6^F1487A (natural protein) | 5 fold | – |
| HA–hRME-6^wt (human RME-6, full length) (natural protein) | – | > 2 fold |
